Measurements: patent US20110263014A1, “Cleavage of Nanog by Caspases Mediates the Differentiation of Embryonic Stem Cells” (BAYLOR COLLEGE OF MEDICINE, priority 2008, published 2011)
Entries after “also recorded” stand apart in the source; their conditions may differ.

Legend:
[1] = test system: R1 ES cells; assay: Apoptosis rate (counting apoptotic bodies); assay type: cell-based, mouse; settings: over 72 hours post-stimulation with RA
Method: R1 ES cells (1×10^5) were plated into 6-cm dishes on irradiated MEFs and stimulated with RA differentiation medium for up to 72 hours. Cells were fixed with 4% paraformaldehyde (EMS, cat. no. 15710), stained with DAPI and mounted with Vectashield (Vector Lab, cat. no. H1200). The number of apoptotic figures was determined in triplicate per 100 cells. As a positive control, ES cells were incubated with staurosporine (Sigma, cat. no. 55921, 1 μM) for 4 hours.

[2] = target: T1, caspase-3 (Homo sapiens, UniProt P42574); assay: caspase-3 activity assay (CaspGlo) with Nanog cleavage site peptides; assay type: biochemical; settings: FIG. 10B
T1 construct: purchased BD Bioscience 556471
T1 sequence (P42574 29-175 limits assumed): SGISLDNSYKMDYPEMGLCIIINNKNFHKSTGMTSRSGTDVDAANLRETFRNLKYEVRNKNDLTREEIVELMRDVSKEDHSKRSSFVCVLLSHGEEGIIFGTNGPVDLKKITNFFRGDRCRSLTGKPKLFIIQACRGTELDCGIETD
T1 sequence (P42574 176-277 limits assumed): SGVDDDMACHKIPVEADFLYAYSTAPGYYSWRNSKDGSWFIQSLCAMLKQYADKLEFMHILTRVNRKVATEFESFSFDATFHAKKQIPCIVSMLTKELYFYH
Method: Trypsinized ES cells (R1; 200,000; D3 250,000) were plated into 6 wells containing normal ES cell medium, and on the next day the medium was changed to 1 μM RA differentiation medium. Cells were harvested with trypsin-EDTA (Invitrogen, cat. no. 25300-054), and protein extracts were made in 0.1% CHAPS buffer, pH 7.2 (50 mM Hepes; 150 mM KCl; 1× protease inhibitors (Roche, cat. no. 1697498001); 2 mM Na fluoride and orthovanadate, respectively, at specified time points. The CaspGlo (Promega, cat. no. G8091) kit was used to directly measure caspase activity. Before determining caspase activity, we tested the system for variability within the dynamic range, using recombinant caspase-3 (BD Bioscience, cat. no. 556471). The signal was measured with the Wallac 1429 Victorll instrument (Perkin-Elmer, Wellesley, Mass.).

CC1=C(/C=C/C(C)=C/C=C/C(C)=C/C(=O)O)C(C)(C)CCC1 [RA, retinoic acid]
percentage of cells undergoing apoptosis [1]: essentially no increases

DSPD: hNanog caspase cleavage site peptide
inhibition / targeting of caspase-3 by cleavage site peptide [2]: effectively inhibit caspase-3

GSPD: mNanog caspase cleavage site peptide
inhibition / targeting of caspase-3 by cleavage site peptide [2]: effectively inhibit caspase-3; also recorded: still targeted by caspase-3
